From publication PMC6400076 (Frontiers in Microbiology, 2019)

Tests used:
AvGAPDH = molecular target: T1, AvGAPDH (Fannyhessea vaginae, UniProt F1T6A5); assay type: biochemical
T1 construct: gene gap; recombinant, expressed and purified by similar protocols as previously described, homotetramer

SpGAPDH = molecular target: T2, SpGAPDH (Streptococcus pyogenes, UniProt P68777)
T2 construct: gene gap

[1] = tested on: NC(=O)c1ccc[n+]([C@@H]2O[C@H](COP(=O)(O)OP(=O)(O)OC[C@H]3O[C@@H](n4cnc5c(N)ncnc54)[C@H](O)[C@@H]3O)[C@@H](O)[C@H]2O)c1; assay: purified protein; conditions: 5 mM G3P, 50 mM Pi, pH 8.5, 25°C
O=C[C@H](O)COP(=O)(O)O = assay: purified protein; conditions: 2 mM NAD+, 50 mM Pi, pH 8.5, 25°C

T1 sequence (F1T6A5 entry or part of it): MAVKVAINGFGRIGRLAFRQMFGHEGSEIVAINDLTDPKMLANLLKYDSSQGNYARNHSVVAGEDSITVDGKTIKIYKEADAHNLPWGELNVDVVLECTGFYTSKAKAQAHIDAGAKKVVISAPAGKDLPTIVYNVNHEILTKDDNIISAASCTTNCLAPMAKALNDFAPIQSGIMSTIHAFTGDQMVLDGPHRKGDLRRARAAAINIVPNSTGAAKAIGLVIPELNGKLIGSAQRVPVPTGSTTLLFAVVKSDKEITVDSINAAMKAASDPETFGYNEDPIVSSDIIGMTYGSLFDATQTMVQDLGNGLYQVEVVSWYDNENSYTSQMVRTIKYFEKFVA
T2 sequence (P68777 whole entry): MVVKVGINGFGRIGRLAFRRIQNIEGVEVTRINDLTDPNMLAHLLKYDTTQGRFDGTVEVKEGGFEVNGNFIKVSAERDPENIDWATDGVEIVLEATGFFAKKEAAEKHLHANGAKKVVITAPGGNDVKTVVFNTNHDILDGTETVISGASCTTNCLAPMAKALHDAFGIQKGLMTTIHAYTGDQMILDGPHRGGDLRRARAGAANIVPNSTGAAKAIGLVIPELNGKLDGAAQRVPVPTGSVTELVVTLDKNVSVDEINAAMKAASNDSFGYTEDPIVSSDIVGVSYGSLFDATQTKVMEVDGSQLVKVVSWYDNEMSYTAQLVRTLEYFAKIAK

Compound | Ki (AvGAPDH) [µM] | Ki (SpGAPDH) [µM] | Km [1] [µM] | Vmax [1] [µM/min/mg] | kcat [1] [s⁻¹] | Km (O=C[C@H](O)COP(=O)(O)O) [µM] | Vmax (O=C[C@H](O)COP(=O)(O)O) [µM/min/mg] | kcat (O=C[C@H](O)COP(=O)(O)O) [s⁻¹] | kcat/Km (O=C[C@H](O)COP(=O)(O)O) [M⁻¹ s⁻¹]
CCCCCCCCCCCCCCCc1cccc(O)c1C(=O)O [anacardic acid, 6-pentadecylsalicylic acid] | 1.25 ± 0.08 | 3.3 ± 0.3 |  |  |  |  |  |  | 
COc1cc(/C=C/C(=O)CC(=O)/C=C/c2ccc(O)c(OC)c2)ccc1O [curcumin] | 39 ± 3 | 38 ± 4 |  |  |  |  |  |  | 
SpGAPDH (Streptococcus pyogenes MGAS8232) |  |  | 280 ± 30 | 2.24e+06 | 3730 ± 100 | 2800 ± 300 | 3.67e+06 | 6110 ± 260 | 2.18e+06 ± 320000
